# According to publication PMC3068846:
# Target: DivL DHp and CA domains fused to YFP (Caulobacter crescentus)
# Experiment: FRET or BRET
# Chain of DivL DHp and CA domains fused to YFP (Caulobacter crescentus) (Q9RQQ9 547-758): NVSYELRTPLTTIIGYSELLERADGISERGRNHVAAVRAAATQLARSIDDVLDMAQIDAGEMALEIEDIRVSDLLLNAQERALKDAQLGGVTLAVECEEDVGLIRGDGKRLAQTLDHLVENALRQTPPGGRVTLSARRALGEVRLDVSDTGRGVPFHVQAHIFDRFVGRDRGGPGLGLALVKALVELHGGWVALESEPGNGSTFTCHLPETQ
substance,measurement,value
DivK~P-CFP (DivK-CFP phosphorylated by DivJ and ATP) (natural protein),FRET efficiency relative to the longer version of DivL,85%
